For one substance, ΔM (Da): change in molecular weight of the ACP after treatment by PPT, MALDI-TOF mass spectrometry (in vitro phosphopantetheinylation) and ΔM (Da): gain in molecular weight of the ACP after treatment by PPT, MALDI-TOF mass spectrometry (in vitro phosphopantetheinylation) results are on record in US20190040477.

For data set [1], the system named is GST-mRtACPI (S1062A mutant of the first ACP domain of Rhodosporidium toruloides Fas2, residues 1022-1184, as GST fusion protein).
In data set [2] the test system is GST-mRtACPII (S1253A mutant of the second ACP domain of Rhodosporidium toruloides Fas2, residues 1213-1375, as GST fusion protein).
The test system of data set [3] is GST-wRtACPI (wild type first ACP domain of Rhodosporidium toruloides Fas2, residues 1022-1184, as GST fusion protein).
For data set [4], the system named is GST-wRtACPII (wild type second ACP domain of Rhodosporidium toruloides Fas2, residues 1213-1375, as GST fusion protein).

Turning to “GST-RtPPT (phosphopantetheinyl transferase domain of Rhodosporidium toruloides Fas2, residues 2809-2928, as GST fusion protein)”, the values for the ΔM (Da): change in molecular weight of the ACP after treatment by PPT, MALDI-TOF mass spectrometry (in vitro phosphopantetheinylation) in data set [1] and in data set [2] were 2 Da and 46 Da, respectively. In addition, the ΔM (Da): gain in molecular weight of the ACP after treatment by PPT, MALDI-TOF mass spectrometry (in vitro phosphopantetheinylation) was found to be 332 Da in data set [3] and 322 Da in data set [4].
